# Data: article PMC6358683
# Assays:
# [1] = target: HA of A/mallard/Alberta/35/1976 (influenza A virus A/mallard/Alberta/35/1976); assay: BLI
# [2] = target: HA of A/New Caledonia/20/1999 (influenza A virus A/New Caledonia/20/1999) (UniProt Q6WG00)
substance,measurement,setting,value
C05 WT (antibody),Kd,[1],511 nM
same,koff,[1],0.0021 s⁻¹
same,kon,[1],4100 M⁻¹ s⁻¹
same,"HAI, antibody concentration at the endpoint titer; virus A/New Caledonia/20/1999",[2],0.2 µg/mL
